The values below come from patent US20110229459A1 (Chugai, published 2011).

In assay [1] the target is T1, cytoplasmic domain-lacking human NR10 on CHO cells (human, UniProt Q8NI17 20-553).
T1 construct: The construct lacks the cytoplasmic domain; also called hNR10-expressing CHO cells; hNR10
T1 sequence: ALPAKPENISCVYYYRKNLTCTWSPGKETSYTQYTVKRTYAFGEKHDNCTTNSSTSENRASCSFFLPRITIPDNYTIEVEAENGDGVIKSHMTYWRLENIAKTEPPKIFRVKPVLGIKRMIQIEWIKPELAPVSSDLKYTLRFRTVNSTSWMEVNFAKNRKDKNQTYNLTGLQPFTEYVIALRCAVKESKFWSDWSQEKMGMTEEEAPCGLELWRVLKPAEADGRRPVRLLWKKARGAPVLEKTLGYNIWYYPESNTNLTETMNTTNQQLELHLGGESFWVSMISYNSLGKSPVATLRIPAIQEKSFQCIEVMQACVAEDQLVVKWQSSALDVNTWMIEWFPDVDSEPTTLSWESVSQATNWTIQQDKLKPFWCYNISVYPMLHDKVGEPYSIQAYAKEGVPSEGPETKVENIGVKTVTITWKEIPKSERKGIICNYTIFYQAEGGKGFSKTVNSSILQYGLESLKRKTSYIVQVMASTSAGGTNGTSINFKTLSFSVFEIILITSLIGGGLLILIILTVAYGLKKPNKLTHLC
The experiment in a line: FMAT competition on hNR10-expressing CHO cells; blocked ligand: FMAT Blue-labeled hIL-31; mean +/- S.D. (n=3). As to the method: Antibodies were assessed for the activity of inhibiting the IL-31/NR10 binding by using hNR10-expressing CHO cells as described below. The chimeric NS22 antibody and NS22_H0L0 (H chain, H0-SKSC/SEQ ID NO: 54; L chain, L0/SEQ ID NO: 56) were diluted at an appropriate concentration using Assay buffer (10 mM HEPES, 140 mM NaCl, 2.5 mM CaCl₂, 3 mM MgCl₂, 2% FBS, 0.01% NaN₃, pH7.4), and further eight serial dilutions were prepared at a common dilution ration of 2. The dilutions were added at 40 μl/well to plates (96-Well FMAT Plates, Applied Biosystems). Then, FMAT Blue-labeled hIL-31 was diluted 400 times with Assay buffer, and added at 20 μl/well. Finally, a cell suspension adjusted to 2.5×10⁵ cells/ml using Assay buffer was added at 40 μl/well (final 1×10⁴ cells/well). Two hours after addition of cells, the fluorescence (FL1) was measured using the 8200 Cellular Detection System (Applied Biosystems).
Each variant was tested for the activity of inhibiting the hIL-31/hNR10 binding by using FMAT. The test was carried out according to the method as described in Example 4.

The target of the next assay is T2, rhNR10 (human, UniProt Q8NI17 20-519, limits assumed).
T2 construct: also called recombinant human NR10; IL-31 receptor
T2 sequence: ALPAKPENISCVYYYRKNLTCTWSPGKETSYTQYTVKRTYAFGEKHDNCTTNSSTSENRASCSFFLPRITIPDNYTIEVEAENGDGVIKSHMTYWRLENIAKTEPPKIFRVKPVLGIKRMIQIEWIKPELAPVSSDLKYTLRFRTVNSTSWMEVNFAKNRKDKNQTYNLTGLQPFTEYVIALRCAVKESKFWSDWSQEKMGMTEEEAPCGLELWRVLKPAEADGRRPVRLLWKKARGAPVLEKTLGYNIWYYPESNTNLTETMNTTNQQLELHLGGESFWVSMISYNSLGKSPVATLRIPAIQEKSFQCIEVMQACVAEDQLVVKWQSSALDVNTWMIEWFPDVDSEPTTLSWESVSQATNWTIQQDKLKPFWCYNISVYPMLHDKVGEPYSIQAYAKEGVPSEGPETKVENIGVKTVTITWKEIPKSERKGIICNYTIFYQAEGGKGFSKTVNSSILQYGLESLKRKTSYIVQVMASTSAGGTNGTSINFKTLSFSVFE
The assay can be described thus: SPR (Biacore T100): antibody captured on Protein A, rhNR10 as analyte. How it is done:
Kinetic analysis of the antigen-antibody reaction was carried out using Biacore T100 (GE Healthcare Biosciences). The antigen-antibody interaction was measured by immobilizing rec-Protein A (hereinafter Protein A) (ZYMED) onto a sensor chip, capturing an antibody on the immobilized Protein A, and then reacting the antigen as an analyte. Various concentrations of rhNR10 were used as the antigen. The kinetic parameters, association rate constant kₐ (1/Ms) and dissociation rate constant kd (1/s), were calculated from the sensorgrams obtained by the measurement. Then, KD (M) was determined based on the rate constants. Each parameter was determined using Biacore T100 Evaluation Software version 1.1 (GE Healthcare Biosciences).
The running buffer used was HBS-EP+. Each antibody was prepared at 0.25 μg/ml, or prepared so that about 100 RU would bind to Protein A. rhNR10 used as an analyte was prepared at 0, 38.5, 77.0, and 154 nM, or at 0, 19.25, and 77.01 nM using HBS-EP+. In the measurement, first, the antibody solution was captured on Protein A, and an analyte solution was reacted at a flow rate of 20 μL/min for three minutes. Then, the solution was switched to HBS-EP+, and the dissociation phase was measured for five minutes. […] The obtained sensorgrams were kinetically analyzed using the Biacore-specific data analysis software, Biacore T100 Evaluation Software Version 1.1.
(In general: Surface plasmon resonance follows binding to a sensor surface in real time, without labels.)

The next assay has as its target T3, soluble human FcRn (human, UniProt P55899 24-290; P16213 21-119).
T3 construct: The stated ranges include the signal regions; also called hFcRn; complex of FcRn and β2-microglobulin
The assay can be described thus: SPR (Biacore 3000), pH 6.0: antibody captured on the chip, human FcRn as analyte, steady state affinity. How it is done:
The binding to human FcRn was assessed using Biacore 3000.
The affinity was calculated using BIAevaluation software. The obtained sensorgram was used to calculate the amount of hFcRn bound to the antibody immediately before the end of human FcRn injection. This was fitted by the steady state affinity method to calculate the affinity of human FcRn for the antibody.
The binding activities of huPM1-IgG1 and huPM1-M58 to human FcRn were assessed using BIAcore.

Residue numbers refer to the chain shown, from its start.

T3 sequence (P55899 24-290 limits assumed, chain 1 of 2): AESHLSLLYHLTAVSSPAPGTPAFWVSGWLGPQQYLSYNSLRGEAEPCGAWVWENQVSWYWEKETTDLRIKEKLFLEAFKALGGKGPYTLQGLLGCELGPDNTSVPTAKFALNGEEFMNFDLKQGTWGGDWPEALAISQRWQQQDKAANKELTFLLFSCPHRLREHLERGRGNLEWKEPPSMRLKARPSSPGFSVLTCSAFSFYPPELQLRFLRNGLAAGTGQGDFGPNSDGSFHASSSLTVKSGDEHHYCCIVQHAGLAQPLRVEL
T3 sequence (P16213 21-119 limits assumed, chain 2 of 2): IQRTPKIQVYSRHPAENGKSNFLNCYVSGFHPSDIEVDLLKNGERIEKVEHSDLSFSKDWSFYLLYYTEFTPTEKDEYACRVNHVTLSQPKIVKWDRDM

B1: Hp9 variant of H0L0 (antibody, V domains shown)
VH: QVQLVQSGAEVKKPGASVKVSCKASGYTFTGYIMNWVRQAPGQGLEWMGLINPYNGGTSYNQQFKGRVTITADESTSTAYMELSSLRSEDTAVYYCARDGYDDGPYTMDYWGQGTLVTVSS
VL: DIQMTQSPSSLSASVGDRVTITCRTSENIYSFLAWYQQKPGKAPKLLIYNAKTLAKGVPSRFSGSGSGTDFTLTISSLQPEDFATYYCQHHYESPLTFGGGTKVEIKR
notes: Variant of H0L0; also called Hp9-VH
In the case of B1, the “IC50 (read off the curve)” value in assay [1] is approximately 0.09 µg/mL.

B2: H0L12 (H chain, H0-M58; L chain, L12) (antibody, V domains shown)
VH: B1 VH with Q63K
VL: B1 VL with R24Q, N28D, L33V, K52Q, L54E, K56Q, E93D
For B2, the “fold affinity against H0L0” value in the assay with rhNR10 is approximately 2 times.

B3: huPM1-M58 (humanized anti-IL-6 receptor antibody with constant region M58) (antibody)
heavy: QVQLQESGPGLVRPSQTLSLTCTVSGYSITSDHAWSWVRQPPGRGLEWIGYISYSGITTYNPSLKSRVTMLRDTSKNQFSLRLSSVTAADTAVYYCARSLARTTAMDYWGQGSLVTVSSASTKGPSVFPLAPSSKSTSGGTAALGCLVKDYFPEPVTVSWNSGALTSGVHTFPAVLQSSGLYSLSSVVTVPSSNFGTQTYTCNVDHKPSNTKVDKTVERKSCVECPPCPAPPVAGPSVFLFPPKPKDTLMISRTPEVTCVVVDVSQEDPEVQFNWYVDGVEVHNAKTKPREEQFNSTFRVVSVLTVVHQDWLNGKEYKCKVSNKGLPAPIEKTISKTKGQPREPQVYTLPPSQEEMTKNQVSLTCLVKGFYPSDIAVEWESNGQPENNYKTTPPMLDSDGSFFLYSKLTVDKSRWQEGNVFSCSVMHEALHNHYTQKSLSLSP
light: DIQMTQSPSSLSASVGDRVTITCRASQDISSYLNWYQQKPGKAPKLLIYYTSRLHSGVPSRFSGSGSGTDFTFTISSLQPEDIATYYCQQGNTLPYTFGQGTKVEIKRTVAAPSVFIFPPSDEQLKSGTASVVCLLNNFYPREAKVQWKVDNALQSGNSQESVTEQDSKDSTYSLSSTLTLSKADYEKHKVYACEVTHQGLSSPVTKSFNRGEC
notes: copies: 2 + 2
With B3, in the assay with soluble human FcRn, the “fold binding activity against huPM1-IgG1” value is approximately 1.4 times.
